Biological target: Ub-NpuN fusion protein bearing the wild-type N-intein sequence (NpuNWT), C1A (not stated | Nostoc punctiforme) (UniProt P0CG48)
Assay: other fluorescence titration

- Kd: 2.9 nM
Substance: NpuC-SUMO fusion protein bearing the wild-type C-intein sequence (NpuCWT) (domain or fragment)

Source: paper PMC3230118
